Source: patent US20230391845A1, “GLP-1, GIP AND GLUCAGON RECEPTOR TRIPLE AGONISTS” (priority 2020, published 2023)
*1 amine or outer side, *2 acyl side, *3 side chain or, on linkers, in order; H or OH if unused. Where a SMILES comes first, the peptide text is derived from it. Where no end group is shown, it is not given here. Side-chain parts run from the residue outwards. [ ]: non-standard residue; d: D form. The star is where a group is joined. X1 = O=C(O)CCCCCCCCCCCCCCCCCCC(=O)NCC1CCC(C(=O)*)CC1; γGlu = O=C(O)[C@H](CCC(=O)[*:2])N[*:1]; εLys = N[C@@H](CCCCN[*:1])C(=O)[*:2]; Aib = CC(C)(N)C(=O)O

B1: Compound No. 30 (peptide)
peptide: H[Aib]HGTFTSDYSIYLEKKYA[Aib]EFVQWLLEGGPSSGAPPPS-NH2
modifications: not fully specified (residue 16); printed as H-Aib-HGTFTSDYSIYLE-K[(2S)-2-amino-6-[[(2S)-2-amino-6-[[(4S)-4-carboxy-4-(19-carboxynonadecanoylamino)butanoyl]amino]hexanoyl]amino]hexanoyl]-KYA-Aib-EFVQWLLEGGPSSGAPPPS-NH2
B2: Compound No. 33 (peptide)
peptide: H[Aib]HGTFTSDYSIYLEKKAA[Aib]EFVQWLLEGGPSSGAPPPS-NH2
modifications: not fully specified (residue 16); printed as H-Aib-HGTFTSDYSIYLE-K[(2S)-2-amino-6-[[(2S)-2-amino-6-[[(4S)-4-carboxy-4-(19-carboxynonadecanoylamino)butanoyl]amino]hexanoyl]amino]hexanoyl]-KAA-Aib-EFVQWLLEGGPSSGAPPPS-NH2

Experiments:
mouse GLP-1 receptor [1] = biological target: T1, mouse GLP-1 receptor (Mus musculus, UniProt O35659); assay: In vitro functional potency (CRE luciferase; whole cells), mouse GLP-1R; type: cell-based; conditions: BHK cells expressing mouse GLP-1 receptor
T1 construct: expressed in transfected cells; host or cells: BHK cells (parent line BHKTS13) containing CRE luciferase
T1 sequence (O35659 22-463): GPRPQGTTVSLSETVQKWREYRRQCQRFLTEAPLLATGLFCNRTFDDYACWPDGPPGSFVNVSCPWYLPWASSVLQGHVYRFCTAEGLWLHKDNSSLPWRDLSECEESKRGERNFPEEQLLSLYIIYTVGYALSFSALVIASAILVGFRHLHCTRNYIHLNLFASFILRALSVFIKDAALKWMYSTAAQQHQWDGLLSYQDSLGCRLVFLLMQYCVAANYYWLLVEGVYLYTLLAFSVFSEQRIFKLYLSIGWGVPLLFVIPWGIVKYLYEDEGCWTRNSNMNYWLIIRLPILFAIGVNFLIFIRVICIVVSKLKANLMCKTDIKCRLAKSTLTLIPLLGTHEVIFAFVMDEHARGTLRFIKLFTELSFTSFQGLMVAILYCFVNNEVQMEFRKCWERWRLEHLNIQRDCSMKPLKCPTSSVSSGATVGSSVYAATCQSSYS
Protocol: (§1) The purpose of this example is to test the functional activity, or potency, of the compounds in vitro at the human and mouse GLP-1, GIP, and Gcg receptors. The in vitro functional potency is the measure of target receptor activation in a whole cell assay.
(§2) In vitro functional potency was determined by measuring the response of the target receptor in a reporter gene assay in individual cell lines. The assay was performed in stably transfected BHK cell lines that expresses one of the following G-protein coupled receptors: human GLP-1 receptor, human GIP receptor, human Gcg receptor, mouse GLP-1 receptor, mouse GIP receptor, or mouse Gcg receptor; and where each cell line contains the DNA for the cAMP response element (CRE) coupled to a promoter and the gene for firefly luciferase (CRE luciferase). When the respective receptor is activated, it results in the production of cAMP, which in turn results in expression of the luciferase protein. […] The luminescence is measured as the readout for the assay. […]
(§3) The data from the microtiter plate reader was first regressed in an Excel in order to calculate the x-axis, log scale concentrations based on the individual test compound's stock concentration and the dilutions of the assay. […] A minimum of two replicates was measured for each sample. […]

mouse GIP receptor [2] = biological target: T2, mouse GIP receptor (Mus musculus, UniProt Q0P543); assay: In vitro functional potency (CRE luciferase; whole cells), mouse GIPR; type: cell-based; conditions: BHK cells expressing mouse GIP receptor
T2 construct: expressed in transfected cells; host or cells: BHK cells (parent line BHKTS13) containing CRE luciferase
T2 sequence (Q0P543 19-460): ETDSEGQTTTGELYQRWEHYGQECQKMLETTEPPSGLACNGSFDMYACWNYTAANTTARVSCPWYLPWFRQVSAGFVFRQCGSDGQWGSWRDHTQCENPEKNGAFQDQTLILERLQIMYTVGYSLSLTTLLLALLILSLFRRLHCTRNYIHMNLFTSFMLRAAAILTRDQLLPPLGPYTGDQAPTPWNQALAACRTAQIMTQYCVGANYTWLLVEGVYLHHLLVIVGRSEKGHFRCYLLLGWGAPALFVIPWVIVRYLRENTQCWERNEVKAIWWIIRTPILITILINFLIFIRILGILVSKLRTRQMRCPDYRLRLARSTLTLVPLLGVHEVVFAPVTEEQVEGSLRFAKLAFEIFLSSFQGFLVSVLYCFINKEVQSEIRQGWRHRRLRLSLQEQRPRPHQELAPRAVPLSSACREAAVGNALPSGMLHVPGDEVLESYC
Protocol: as §1, §2, §3

mouse Gcg receptor [3] = biological target: T3, mouse Gcg receptor (Mus musculus, UniProt Q61606); assay: In vitro functional potency (CRE luciferase; whole cells), mouse GcgR; type: cell-based; conditions: BHK cells expressing mouse Gcg receptor
T3 construct: expressed in transfected cells; host or cells: BHK cells (parent line BHKTS13) containing CRE luciferase
T3 sequence (Q61606 27-485): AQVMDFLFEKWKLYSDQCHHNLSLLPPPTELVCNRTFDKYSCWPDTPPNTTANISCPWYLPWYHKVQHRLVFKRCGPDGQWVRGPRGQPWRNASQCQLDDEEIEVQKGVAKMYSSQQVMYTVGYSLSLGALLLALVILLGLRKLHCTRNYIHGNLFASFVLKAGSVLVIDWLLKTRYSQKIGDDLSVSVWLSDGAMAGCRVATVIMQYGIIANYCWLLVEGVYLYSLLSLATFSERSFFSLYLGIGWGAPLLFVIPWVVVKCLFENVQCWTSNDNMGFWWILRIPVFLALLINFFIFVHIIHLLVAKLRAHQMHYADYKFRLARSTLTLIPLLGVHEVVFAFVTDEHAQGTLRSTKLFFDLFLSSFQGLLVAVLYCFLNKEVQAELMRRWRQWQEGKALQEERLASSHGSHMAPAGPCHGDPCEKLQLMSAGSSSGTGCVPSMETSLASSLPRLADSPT
Protocol: as §1, §2, §3

[4] = glucagon: depending on the route of administration; cited from earlier work
[5] = biological target: human glucagon-like peptide 1 receptor (human, UniProt P43220 24-463); assay: cell-based or functional assay
[6] = biological target: T4, human glucose-dependent insulinotropic polypeptide receptor (human, UniProt P48546 22-466); assay: cell-based or functional assay
T4 sequence (looked up): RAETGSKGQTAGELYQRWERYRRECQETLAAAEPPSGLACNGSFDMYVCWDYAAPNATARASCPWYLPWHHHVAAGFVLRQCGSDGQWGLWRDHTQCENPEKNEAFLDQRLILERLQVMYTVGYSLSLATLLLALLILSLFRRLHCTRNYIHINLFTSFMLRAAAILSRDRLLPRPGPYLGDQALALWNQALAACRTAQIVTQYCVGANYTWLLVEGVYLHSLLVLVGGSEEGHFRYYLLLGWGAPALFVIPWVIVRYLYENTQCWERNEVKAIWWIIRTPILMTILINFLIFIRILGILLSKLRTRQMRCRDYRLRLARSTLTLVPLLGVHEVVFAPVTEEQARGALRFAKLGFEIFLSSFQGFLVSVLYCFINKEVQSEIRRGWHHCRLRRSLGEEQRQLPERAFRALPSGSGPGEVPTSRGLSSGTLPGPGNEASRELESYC

human glucagon receptor = human glucagon receptor (human, UniProt P47871 26-477); assay: cell-based or functional assay
Sequence of human glucagon receptor (P47871 26-477): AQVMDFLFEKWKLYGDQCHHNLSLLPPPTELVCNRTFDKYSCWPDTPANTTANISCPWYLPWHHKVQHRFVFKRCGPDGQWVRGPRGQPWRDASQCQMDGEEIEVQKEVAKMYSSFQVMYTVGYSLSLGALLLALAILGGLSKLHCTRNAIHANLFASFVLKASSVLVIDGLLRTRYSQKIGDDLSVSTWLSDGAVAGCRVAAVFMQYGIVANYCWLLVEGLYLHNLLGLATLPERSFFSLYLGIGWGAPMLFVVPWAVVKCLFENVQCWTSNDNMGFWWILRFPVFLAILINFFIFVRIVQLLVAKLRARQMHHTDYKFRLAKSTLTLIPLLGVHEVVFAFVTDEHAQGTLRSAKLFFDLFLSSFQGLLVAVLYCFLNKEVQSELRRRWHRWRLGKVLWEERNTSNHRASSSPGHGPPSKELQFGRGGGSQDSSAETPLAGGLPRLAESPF

mouse GLP-1 receptor [7] = biological target: T5, mouse GLP-1 receptor (mouse, UniProt O35659 22-463); assay: cell-based or functional assay
T5 sequence (looked up): T1 sequence (O35659 22-463)

mouse GIP receptor [8] = biological target: T6, mouse GIP receptor (mouse, UniProt Q0P543 19-460); assay: cell-based or functional assay
T6 sequence (looked up): T2 sequence (Q0P543 19-460)

mouse Gcg receptor [9] = biological target: mouse Gcg receptor (mouse, UniProt Q61606 27-485); assay: cell-based or functional assay
Sequence of mouse Gcg receptor (mouse, UniProt Q61606 27-485) (Q61606 27-485): as the sequence (Q61606 27-485) above

| Molecule | mGLP-1R CRE Luc EC50 (pM) (mouse GLP-1 receptor [1]) | mGIPR CRE Luc EC50 (pM) (mouse GIP receptor [2]) | mGcgR CRE Luc EC50 (pM) (mouse Gcg receptor [3]) | half-life as measured in man [4] | hGLP-1R CRE Luc EC50 (pM) [5] | hGIPR CRE Luc EC50 (pM) [6] | hGcgR CRE Luc EC50 (pM) (human glucagon receptor) | mGLP-1R CRE Luc EC50 (pM) (mouse GLP-1 receptor [7]) | mGIPR CRE Luc EC50 (pM) (mouse GIP receptor [8]) | mGcgR CRE Luc EC50 (pM) (mouse Gcg receptor [9]) |
| --- | --- | --- | --- | --- | --- | --- | --- | --- | --- | --- |
| CC[C@H](C)[C@H](NC(=O)[C@H](CO)NC(=O)[C@H](Cc1ccc(O)cc1)NC(=O)[C@H](CC(=O)O)NC(=O)[C@H](CO)NC(=O)[C@@H](NC(=O)[C@H](Cc1ccccc1)NC(=O)[C@@H](NC(=O)CNC(=O)[C@H](Cc1c[nH]cn1)NC(=O)C(C)(C)NC(=O)[C@@H](N)Cc1c[nH]cn1)[C@@H](C)O)[C@@H](C)O)C(=O)N[C@@H](Cc1ccc(O)cc1)C(=O)N[C@@H](CC(C)C)C(=O)N[C@@H](CCC(=O)O)C(=O)N[C@@H](CCCCNC(=O)[C@@H](N)CCCCNC(=O)[C@@H](N)CCCCNC(=O)CC[C@H](NC(=O)C1CCC(CNC(=O)CCCCCCCCCCCCCCCCCCC(=O)O)CC1)C(=O)O)C(=O)N[C@@H](CCC(N)=O)C(=O)N[C@@H](C)C(=O)N[C@@H](C)C(=O)NC(C)(C)C(=O)N[C@@H](CCC(=O)O)C(=O)N[C@@H](Cc1ccccc1)C(=O)N[C@H](C(=O)N[C@@H](CCC(N)=O)C(=O)N[C@@H](Cc1c[nH]c2ccccc12)C(=O)N[C@@H](CC(C)C)C(=O)N[C@@H](CC(C)C)C(=O)N[C@@H](CCC(=O)O)C(=O)NCC(=O)NCC(=O)N1CCC[C@H]1C(=O)N[C@@H](CO)C(=O)N[C@@H](CO)C(=O)NCC(=O)N[C@@H](C)C(=O)N1CCC[C@H]1C(=O)N1CCC[C@H]1C(=O)N1CCC[C@H]1C(=O)N[C@@H](CO)C(N)=O)C(C)C (stereo partly shown) [Compound No. 21] (H-H[Aib]HGTFTSDYSIYLEK([εLys-εLys-γGlu-X1])QAA[Aib]EFVQWLLEGGPSSGAPPPS-NH2; N-terminus assumed) | similar | similar | reduced |  |  |  |  |  |  |  |
| CC[C@H](C)[C@H](NC(=O)[C@H](CO)NC(=O)[C@H](Cc1ccc(O)cc1)NC(=O)[C@H](CC(=O)O)NC(=O)[C@H](CO)NC(=O)[C@@H](NC(=O)[C@H](Cc1ccccc1)NC(=O)[C@@H](NC(=O)CNC(=O)[C@H](CCC(=O)O)NC(=O)[C@H](C)NC(=O)[C@@H](N)Cc1ccc(O)cc1)[C@@H](C)O)[C@@H](C)CC)C(=O)N[C@@H](C)C(=O)N[C@@H](CCSC)C(=O)N[C@@H](CC(=O)O)C(=O)N[C@@H](CCCCN)C(=O)N[C@H](C(=O)N[C@@H](Cc1c[nH]cn1)C(=O)N[C@@H](CCC(N)=O)C(=O)N[C@@H](CCC(N)=O)C(=O)N[C@@H](CC(=O)O)C(=O)N[C@@H](Cc1ccccc1)C(=O)N[C@H](C(=O)N[C@@H](CC(N)=O)C(=O)N[C@@H](Cc1c[nH]c2ccccc12)C(=O)N[C@@H](CC(C)C)C(=O)N[C@@H](CC(C)C)C(=O)N[C@@H](C)C(=O)N[C@@H](CCC(N)=O)C(=O)N[C@@H](CCCCN)C(=O)NCC(=O)N[C@@H](CCCCN)C(=O)N[C@@H](CCCCN)C(=O)N[C@@H](CC(N)=O)C(=O)N[C@@H](CC(=O)O)C(=O)N[C@@H](Cc1c[nH]c2ccccc12)C(=O)N[C@@H](CCCCN)C(=O)N[C@@H](Cc1c[nH]cn1)C(=O)N[C@@H](CC(N)=O)C(=O)N[C@H](C(=O)N[C@H](C(=O)N[C@@H](CCC(N)=O)C(=O)O)[C@@H](C)O)[C@@H](C)CC)C(C)C)[C@@H](C)CC [hGIP, Native Human GIP] |  |  |  | 5 to 7 min |  |  |  |  |  |  |
| B1 |  |  |  |  | 3.9 pM | 15.6 pM | 9.3 pM | 2.6 pM | 11.2 pM | 5.7 pM |
| H[Aib]HGTFTSDYSIYLEKQAA[Aib]EFVQWLLEGGPSSGAPPPS-NH2 (not fully specified (residue 16)) [Compound No. 21] |  |  |  |  | 3 pM | 3.2 pM | 26.6 pM | 2.9 pM | 9.8 pM | 56.1 pM |
| B2 |  |  |  |  | 3.3 pM | 7.3 pM | 13.7 pM | 2.2 pM | 10 pM | 8.1 pM |
